# Results published in PMC11685595 (Scientific Reports, 2024).
# B1: Arabidopsis thaliana Plant Cysteine Oxidase 5, Ni(II)-substituted (AtPCO5.Ni(II)) (enzyme)
# chain: not shown
# notes: Plant Cysteine Oxidase 5 (AtPCO5), Arabidopsis thaliana; Active-site Fe(II) removed and replaced with Ni(II) (enzyme:metal 1:2)
# What was measured:
# Test in all cases: other fluorescence titration; intrinsic Trp fluorescence quenching, plate-based (96-well), 0-750 µM peptide added to 8 µM enzyme.Ni(II) (1:2), anaerobic preparation, 10 min at 25 °C, 50 mM Tris pH 7.5, 0.4 M NaCl; λex/λem 280/350 nm; fit to one-site specific binding with or without Hill slope
# Details in all cases: both partners purified
# [1] = biological target: T1, AtHRE1_(2-15) 14-mer peptide (Arabidopsis thaliana, UniProt Q8H0T5 2-15)
# T1 construct: HRE1, Arabidopsis thaliana ERFVII, Cys-initiating residues 2-15; source: synthetic peptide (GL Biochem, China)
# [2] = biological target: T2, AtRAP2.12_(2-15) 14-mer peptide (Arabidopsis thaliana, UniProt Q9SSA8 2-15)
# T2 construct: RELATED TO AP-2.12 (RAP2.12), Arabidopsis thaliana ERFVII, Cys-initiating residues 2-15; also called RAP2_(2-15); source: synthetic peptide (GL Biochem, China)
# [3] = biological target: T3, AtZPR2_(2-15) 14-mer peptide (Arabidopsis thaliana, UniProt Q9LZX5 2-15)
# T3 construct: Little Zipper 2 (ZPR2), Arabidopsis thaliana, Cys-initiating residues 2-15; source: synthetic peptide (GL Biochem, China)
# [4] = biological target: T4, AtVRN2_(2-15) 14-mer peptide (Arabidopsis thaliana, UniProt Q8W5B1 2-15)
# T4 construct: Polycomb group protein Vernalisation 2 (VRN2), Arabidopsis thaliana, Cys-initiating residues 2-15; source: synthetic peptide (GL Biochem, China)
binder,measurement,setting,value
B1,Kd,[1],223 ± 10.3 µM
same,Kd,[2],258 ± 14.3 µM
same,Kd,[3],692 ± 513 µM
same,Kd,[4],107 ± 29.7 µM
